Results taken from paper PMC4737164, “DNA recognition for virus assembly through multiple sequence-independent interactions with a helix-turn-helix motif”.

Columns and labels:
[1] = target: T1, SF6 small terminase (GP1) DBD wild type (Bacillus phage SF6, UniProt P68928 1-68); assay: AUC; 1:1; Kd stated in mM range; 20 mM HEPES, 150 mM KCl (300 mM in second ReDCaT), pH 7.0, +0.05% Tween 20 for SPR; ReDCaT 20 uM protein; AUC 20 C; NMR 20 mM MES, 150 mM KCl, pH 6.0, 25 C; conditions: protein: recombinant; tags: C-terminal 3C site-His tag, cleaved; label: 5'-6-FAM in AUC; hairpin, 5 bp, 1 nt 5' overhang
T1 sequence: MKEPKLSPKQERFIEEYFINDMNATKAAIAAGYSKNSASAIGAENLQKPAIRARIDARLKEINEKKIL

[2] = target: T1, SF6 small terminase (GP1) DBD wild type; assay: SPR; McGhee-von Hippel, site size 3 bp; not saturated; 20 mM HEPES, 150 mM KCl (300 mM in second ReDCaT), pH 7.0, +0.05% Tween 20 for SPR; ReDCaT 20 uM protein; AUC 20 C; NMR 20 mM MES, 150 mM KCl, pH 6.0, 25 C; conditions: protein: recombinant, tags: C-terminal 3C site-His tag, cleaved, label: 5'-biotin strand 1 (SPR), blunt
[3] = target: T1, SF6 small terminase (GP1) DBD wild type; assay: SPR; 300 mM KCl; above-average density; 20 mM HEPES, 150 mM KCl (300 mM in second ReDCaT), pH 7.0, +0.05% Tween 20 for SPR; ReDCaT 20 uM protein; AUC 20 C; NMR 20 mM MES, 150 mM KCl, pH 6.0, 25 C; conditions: protein: recombinant; tags: C-terminal 3C site-His tag, cleaved; label: 5'-biotin strand 3; nicked 50 bp
[4] = target: T1, SF6 small terminase (GP1) DBD wild type; assay: AUC; 1.5 mM protein; 1:1; Kd stated in mM range; 20 mM HEPES, 150 mM KCl (300 mM in second ReDCaT), pH 7.0, +0.05% Tween 20 for SPR; ReDCaT 20 uM protein; AUC 20 C; NMR 20 mM MES, 150 mM KCl, pH 6.0, 25 C; conditions: protein: recombinant; tags: C-terminal 3C site-His tag, cleaved; label: 3'-ATTO 647N in AUC; hairpin, 5 bp, TTTT loop
[5] = target: T1, SF6 small terminase (GP1) DBD wild type; assay: SPR; 300 mM KCl; increased, approaching F5; 20 mM HEPES, 150 mM KCl (300 mM in second ReDCaT), pH 7.0, +0.05% Tween 20 for SPR; ReDCaT 20 uM protein; AUC 20 C; NMR 20 mM MES, 150 mM KCl, pH 6.0, 25 C; conditions: protein: recombinant; tags: C-terminal 3C site-His tag, cleaved; label: 5'-biotin strand 3; nicked
[6] = target: T1, SF6 small terminase (GP1) DBD wild type; assay: SPR; 150 mM KCl; superstoichiometric, low affinity; 20 mM HEPES, 150 mM KCl (300 mM in second ReDCaT), pH 7.0, +0.05% Tween 20 for SPR; ReDCaT 20 uM protein; AUC 20 C; NMR 20 mM MES, 150 mM KCl, pH 6.0, 25 C; conditions: protein: recombinant; tags: C-terminal 3C site-His tag, cleaved; label: 5'-biotin strand 3; nicked 50 bp
[7] = target: T1, SF6 small terminase (GP1) DBD wild type; assay: SPR; 300 mM KCl; not significantly changed vs P6/F3; 20 mM HEPES, 150 mM KCl (300 mM in second ReDCaT), pH 7.0, +0.05% Tween 20 for SPR; ReDCaT 20 uM protein; AUC 20 C; NMR 20 mM MES, 150 mM KCl, pH 6.0, 25 C; conditions: protein: recombinant; tags: C-terminal 3C site-His tag, cleaved; label: 5'-biotin strand 3; nicked 50 bp
[8] = target: T2, SF6 small terminase DBD K26A (Bacillus phage SF6, UniProt P68928 1-68, K26A); assay: SPR; McGhee-von Hippel, site size 3 bp; 20 mM HEPES, 150 mM KCl (300 mM in second ReDCaT), pH 7.0, +0.05% Tween 20 for SPR; ReDCaT 20 uM protein; AUC 20 C; NMR 20 mM MES, 150 mM KCl, pH 6.0, 25 C; conditions: protein: recombinant; tags: C-terminal 3C site-His tag, cleaved; label: 5'-biotin strand 1 (SPR); none in NMR; blunt
T2 sequence: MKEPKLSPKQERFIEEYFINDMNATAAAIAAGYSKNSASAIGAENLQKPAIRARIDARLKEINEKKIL

[9] = target: T3, SF6 small terminase DBD K48A (Bacillus phage SF6, UniProt P68928 1-68, K48A); assay: SPR; up to 1500 uM protein; 20 mM HEPES, 150 mM KCl (300 mM in second ReDCaT), pH 7.0, +0.05% Tween 20 for SPR; ReDCaT 20 uM protein; AUC 20 C; NMR 20 mM MES, 150 mM KCl, pH 6.0, 25 C; conditions: protein: recombinant; tags: C-terminal 3C site-His tag, cleaved; label: 5'-biotin strand 1 (SPR); none in NMR; blunt
T3 sequence: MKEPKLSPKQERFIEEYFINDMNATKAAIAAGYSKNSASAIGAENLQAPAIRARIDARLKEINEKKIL

[10] = target: T1, SF6 small terminase (GP1) DBD wild type; assay: AUC; 2-3 proteins per DNA, saturated; 20 mM HEPES, 150 mM KCl (300 mM in second ReDCaT), pH 7.0, +0.05% Tween 20 for SPR; ReDCaT 20 uM protein; AUC 20 C; NMR 20 mM MES, 150 mM KCl, pH 6.0, 25 C; conditions: protein: recombinant; tags: C-terminal 3C site-His tag, cleaved; label: 3'-ATTO 647N strand 1; blunt
[11] = target: T1, SF6 small terminase (GP1) DBD wild type; assay: AUC; 1 mM protein; 5 proteins per DNA, not saturated; 20 mM HEPES, 150 mM KCl (300 mM in second ReDCaT), pH 7.0, +0.05% Tween 20 for SPR; ReDCaT 20 uM protein; AUC 20 C; NMR 20 mM MES, 150 mM KCl, pH 6.0, 25 C; conditions: protein: recombinant; tags: C-terminal 3C site-His tag, cleaved; label: 5'-TAMRA strand 1; blunt

B1: 18C-hairpin (structured_DNA)
DNA 1: AGTAGG
DNA 2: CCTAC
modifications: 18C spacer joins 3' end of strand 1 to 5' end of strand 2
B1: binds [1].

B2: 30-bp linker dsDNA (dsDNA)
DNA 1: GAGACCTGGAACGCGATCATTGGCAGCACG
DNA 2: CGTGCTGCCAATGATCGCGTTCCAGGTCTC
B2 showed a Kd [2] of 1.85 ± 0.02 mM.

B3: F3 (S3) (dsDNA)
DNA 1: ATTAGGTTTATATAAGGTTTTAATTAGGTT
DNA 2: AACCTAATTAAAACCTTATATAAACCTAATCCTACCCTACGTCCTCCTGC
DNA 3: GCAGGAGGACGTAGGGTAGG
B3: binds [3].

GTAGGTTTTCCTAC (structured_DNA) [14-nt hairpin]: binds [4].

B4: P8_F5 (dsDNA)
DNA 1: TTTCTATGGGAGAAGTAAACCTAAACTATCTCCAAA
DNA 2: TTTGGAGATAGTTTAGGTTTACTTCTCCCATAGAAACCTACCCTACGTCCTCCTGC
DNA 3: GCAGGAGGACGTAGGGTAGG
B4: binds [5].

B5: P6 (boxA) (dsDNA)
DNA 1: ATTAGGTTTATATAAGGTTTTATCATTCAG
DNA 2: CTGAATGATAAAACCTTATATAAACCTAATCCTACCCTACGTCCTCCTGC
DNA 3: GCAGGAGGACGTAGGGTAGG
B5: binds [6].

B6: P6_F3 (dsDNA)
DNA 1: ATTAGGTTTATATAAGGTTTTATACATCAG
DNA 2: CTGATGTATAAAACCTTATATAAACCTAATCCTACCCTACGTCCTCCTGC
DNA 3: GCAGGAGGACGTAGGGTAGG
B6: binds [7].

B7: 20-bp linker dsDNA (dsDNA)
DNA 1: GCAGGAGGACGTAGGGTAGG
DNA 2: CCTACCCTACGTCCTCCTGC
For B7, the Kd [8] was 3.08 ± 0.03 mM, the binding result [9] was “no binding” and the Kd ([2]; none in NMR) was 0.92 ± 0.01 mM.

B8: 11-bp DNA (dsDNA)
DNA 1: GCCTACCCTAC
DNA 2: GTAGGGTAGGC
B8: binds [10].

B9: F10 (S10) (dsDNA)
DNA 1: TTGGGGCAGAAAACTTACAGAAACCAGCTA
DNA 2: TAGCTGGTTTCTGTAAGTTTTCTGCCCCAACCTACCCTACGTCCTCCTGC
DNA 3: GCAGGAGGACGTAGGGTAGG
B9: binds [3].

B10: 30-bp AUC DNA (dsDNA)
DNA 1: ATAGAAAAAACCTCCTTAAAACTATATTTG
DNA 2: CAAATATAGTTTTAAGGAGGTTTTTTCTAT
B10: binds [11].

B11: F5 (S5) (dsDNA)
DNA 1: TTTTATGAAAGAACCTAAACTATCTCCAAA
DNA 2: TTTGGAGATAGTTTAGGTTCTTTCATAAAACCTACCCTACGTCCTCCTGC
DNA 3: GCAGGAGGACGTAGGGTAGG
B11: binds [3].
